# Changes are numbered by the printed parent chain.
# T1: HsLARP6(70-300) R231A (Homo sapiens, UniProt Q9BRS8 70-300, R231A)
# T1 sequence: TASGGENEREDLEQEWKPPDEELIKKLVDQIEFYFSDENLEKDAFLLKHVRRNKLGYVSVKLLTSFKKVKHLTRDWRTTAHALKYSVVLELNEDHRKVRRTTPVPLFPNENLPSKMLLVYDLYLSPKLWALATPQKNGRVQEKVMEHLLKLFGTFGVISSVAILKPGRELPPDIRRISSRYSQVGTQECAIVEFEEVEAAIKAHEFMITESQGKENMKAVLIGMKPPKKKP
# T2: HsLARP6(70-300) R249A (Homo sapiens, UniProt Q9BRS8 70-300, R249A)
# T2 sequence: T1 sequence with A162R, R180A
# T3: HsLARP6(70-300) I260A (Homo sapiens, UniProt Q9BRS8 70-300, I260A)
# T3 sequence: T1 sequence with A162R, I191A
# T4: HsLARP6(70-300) R244A (Homo sapiens, UniProt Q9BRS8 70-300, R244A)
# T4 sequence: T1 sequence with A162R, R175A
# T5: HsLARP6(70-300) E262A (Homo sapiens, UniProt Q9BRS8 70-300, E262A)
# T5 sequence: T1 sequence with A162R, E193A
# T6: HsLARP6(70-300) L187A (Homo sapiens, UniProt Q9BRS8 70-300, L187A)
# T6 sequence: T1 sequence with L118A, A162R
# T7: HsLARP6(70-300) F114A (Homo sapiens, UniProt Q9BRS8 70-300, F114A)
# T7 sequence: T1 sequence with F45A, A162R
# T8: HsLARP6 La module (70-300) (Homo sapiens, UniProt Q9BRS8 70-300)
# T8 sequence: T1 sequence with A162R
# B1: 48 nt RNA (collagen alpha1(I) 5' UTR SL) (structured_RNA)
# RNA: CCACAAAGAGUCUACAUGUCUAGGGUCUAGACAUGUUCAGCUUUGUGG
# Columns and labels:
# Experiment in all cases: ITC; ITC: 20 mM Tris pH 7.25, 100 mM KCl, 5 mM MgCl2, 1 mM DTT, 298 K; protein titrated into RNA
# HsLARP6(70-300) R231A = target: T1, HsLARP6(70-300) R231A; details: protein: recombinant; tags: N-terminal His6 (TEV-cleavable); stem-loop with internal bulge
# HsLARP6(70-300) R249A = target: T2, HsLARP6(70-300) R249A; details: protein: recombinant; tags: N-terminal His6 (TEV-cleavable); stem-loop with internal bulge
# HsLARP6(70-300) I260A = target: T3, HsLARP6(70-300) I260A; details: protein: recombinant; tags: N-terminal His6 (TEV-cleavable); stem-loop with internal bulge
# HsLARP6(70-300) R244A = target: T4, HsLARP6(70-300) R244A; details: protein: recombinant; tags: N-terminal His6 (TEV-cleavable); stem-loop with internal bulge
# HsLARP6(70-300) E262A = target: T5, HsLARP6(70-300) E262A; details: protein: recombinant; tags: N-terminal His6 (TEV-cleavable); stem-loop with internal bulge
# HsLARP6(70-300) L187A = target: T6, HsLARP6(70-300) L187A; details: protein: recombinant; tags: N-terminal His6 (TEV-cleavable); stem-loop with internal bulge
# HsLARP6(70-300) F114A = target: T7, HsLARP6(70-300) F114A; details: protein: recombinant; tags: N-terminal His6 (TEV-cleavable); stem-loop with internal bulge
# [1] = target: T8, HsLARP6 La module (70-300); details: protein: recombinant; tags: N-terminal His6, TEV-cleaved for initial ITC; stem-loop with internal bulge
binder,measurement,setting,value
B1,Kd,HsLARP6(70-300) R231A,0.02 µM
same,Kd,HsLARP6(70-300) R249A,0.026 µM
same,Kd,HsLARP6(70-300) I260A,0.026 µM
same,Kd,HsLARP6(70-300) R244A,0.071 µM
same,Kd,HsLARP6(70-300) E262A,0.0053 µM
same,Kd,HsLARP6(70-300) L187A,0.019 µM
same,binding result,HsLARP6(70-300) F114A,no binding
same,Kd,[1],0.048 µM
